Assay results taken from PMC9242592, “Activation of the human chemokine receptor CX3CR1 regulated by cholesterol” (Science Advances, 2022).

B1: human dominant negative Gαi1 (DNGαi1) with S47C, G202T, G203A, E245A and A326S (natural protein)
chain: MGCTLSAEDKAAVERSKMIDRNLREDGEKAAREVKLLLLGAGESGKCTIVKQMKIIHEAGYSEEECKQYKAVVYSNTIQSIIAIIRAMGRLKIDFGDSARADDARQLFVLAGAAEEGFMTAELAGVIKRLWKDSGVQACFNRSREYQLNDSAAYYLNDLDRIAQPNYIPTQQDVLRTRVKTTGIVETHFTFKDLHFKMFDVTAQRSERKKWIHCFEGVTAIIFCVALSDYDLVLAEDEEMNRMHASMKLFDSICNNKWFTDTSIILFLNKKDLFEEKIKKSPLTICYPEYAGSNTYEEAAAYIQCQFEDLNKRKDTKEIYTHFTCSTDTKNVQFVFDAVTDVIIKNNLKDCGLF
notes: source: HighFive insect cells, coexpressed with the receptor and Gβ1/Gγ2, purified as complex (Strep-Tactin, SEC)

Columns and labels:
Conditions in all cases: both partners purified
[1] = target: T1, Modified CX3CL1-CX3CR1 fusion followed by the Twin-Strep-Tag at the C terminus ( | human, UniProt P78423 25-100; P49238 1-315, G35C | I120^3.43L | L176^ECL2C | C221^ICL3S | M250^6.54V, pyroglutamate at residue 1 of CX3CL1 (pE1); disulfide between G35C of CX3CL1 and L176C of CX3CR1); assay: cryo-EM structure; CX3CL1-bound CX3CR1-Gi1 complex; construct-2 (CX3CL1 fused to CX3CR1, disulfide G35C-L176C), DNGαi1 and Gβ1/Gγ2 coexpressed in HighFive cells and purified together (Strep-Tactin, SEC) in LMNG/CHS; 25 mM Hepes pH 7.5, 150 mM NaCl; apyrase treated
T1 construct: CX3CL1 chemokine domain, residues 1 to 76; numbers count on: the mature protein (pE1 is residue 1); 28-residue linker (14 × Gly-Ser); CX3CR1, human, residues 1 to 315, as in construct-1 with the additional L176C; A signal peptide before CX3CL1 is not described; also called construct-2; fused form of CX3CR1-CX3CL1 with a cross-linking disulfide bond; source: HighFive insect cells, coexpressed with …
T1 sequence: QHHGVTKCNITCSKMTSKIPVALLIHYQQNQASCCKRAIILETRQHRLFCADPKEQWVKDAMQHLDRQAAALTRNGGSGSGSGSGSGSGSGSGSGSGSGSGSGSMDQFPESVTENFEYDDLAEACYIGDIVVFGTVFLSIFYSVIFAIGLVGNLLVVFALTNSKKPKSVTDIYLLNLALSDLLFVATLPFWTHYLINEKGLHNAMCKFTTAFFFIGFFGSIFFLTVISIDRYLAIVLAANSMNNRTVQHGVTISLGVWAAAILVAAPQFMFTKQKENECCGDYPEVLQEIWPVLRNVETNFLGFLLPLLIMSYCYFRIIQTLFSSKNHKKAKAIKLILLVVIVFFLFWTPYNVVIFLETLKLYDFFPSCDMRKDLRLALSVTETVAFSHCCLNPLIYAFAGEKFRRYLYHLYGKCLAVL

[2] = target: T2, CX3CR1 (residues 1 to 315; I120L, L176C, C221S, M250V) as it stands in construct-2 (human, UniProt P49238 1-315, I120^3.43L | L176^ECL2C | C221^ICL3S | M250^6.54V); assay: as above
T2 construct: CX3CR1, human, residues 1 to 315; Not a free protein: the receptor part of the fusion m2; Written alone for the pair CX3CL1 with CX3CR1; source: HighFive insect cells, part of the fusion construct-2, purified as complex (Strep-Tactin, SEC); not shown: Twin-Strep-tag, C-terminal, kept
T2 sequence (looked up): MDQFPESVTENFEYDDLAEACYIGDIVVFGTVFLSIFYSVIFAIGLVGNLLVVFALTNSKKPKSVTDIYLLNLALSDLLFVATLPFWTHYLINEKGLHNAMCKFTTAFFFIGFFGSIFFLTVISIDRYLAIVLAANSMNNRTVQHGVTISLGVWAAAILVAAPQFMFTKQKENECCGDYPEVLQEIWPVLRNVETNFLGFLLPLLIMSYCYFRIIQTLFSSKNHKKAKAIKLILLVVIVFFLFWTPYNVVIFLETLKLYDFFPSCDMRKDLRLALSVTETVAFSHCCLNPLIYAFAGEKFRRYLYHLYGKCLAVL

[3] = target: B1; assay: cryo-EM structure; ligand-free CX3CR1-Gi1 complex; construct-1, DNGαi1 and Gβ1/Gγ2 coexpressed in HighFive cells and purified together (Strep-Tactin, SEC) in LMNG/GDN/CHS; 25 mM Hepes pH 7.5, 150 mM NaCl; apyrase treated

B1
binding result [1]: binds

B2: CX3CL1 (residues 1 to 76, G35C) as it stands in construct-2 (ligand, UniProt P78423 25-100, looked up)
chain: QHHGVTKCNITCSKMTSKIPVALLIHYQQNQASCCKRAIILETRQHRLFCADPKEQWVKDAMQHLDRQAAALTRNG
modifications: pyroglutamate at 1 (pE1)
notes: CX3CL1 chemokine domain, residues 1 to 76; numbers count on: the mature protein (pE1 is residue 1); Written alone for the pair CX3CL1 with CX3CR1; also called chemokine CX3CL1; source: HighFive insect cells, part of the fusion construct-2, purified as complex (Strep-Tactin, SEC)
binding result [2]: binds

B3: Modified human CX3CR1 (residues 1 to 315) with three mutations (I120L, C221S, M250V) and a C-terminal Twin-Strep-tag (receptor, UniProt P49238 1-315, looked up)
chain: MDQFPESVTENFEYDDLAEACYIGDIVVFGTVFLSIFYSVIFAIGLVGNLLVVFALTNSKKPKSVTDIYLLNLALSDLLFVATLPFWTHYLINEKGLHNAMCKFTTAFFFIGFFGSIFFLTVISIDRYLAIVLAANSMNNRTVQHGVTISLGVWAAAILVAAPQFMFTKQKENECLGDYPEVLQEIWPVLRNVETNFLGFLLPLLIMSYCYFRIIQTLFSSKNHKKAKAIKLILLVVIVFFLFWTPYNVVIFLETLKLYDFFPSCDMRKDLRLALSVTETVAFSHCCLNPLIYAFAGEKFRRYLYHLYGKCLAVL
notes: CX3CR1, human, residues 1 to 315 (40 residues C316 to L355 truncated from the C terminus); also called construct-1; engineered construct; source: HighFive insect cells, coexpressed with DNGαi1 and Gβ1/Gγ2, purified as complex (Strep-Tactin, SEC); not shown: Twin-Strep-tag, C-terminal, kept
binding result [3]: binds
